Laboratory results as given in PMC6820745, “Structural and thermodynamic basis for the recognition of the substrate-binding cleft on hen egg lysozyme by a single-domain antibody” (Scientific Reports, 2019).
Changes are numbered by the printed parent chain.

Columns and labels:
Settings in all cases: both partners purified
hen egg lysozyme [1] = molecular target: T1, hen egg lysozyme (hen, UniProt P00698 19-147); test: SPR; HEL immobilised on CM5 chip (200 RU), VHH flowed over, multi-cycle, 22 °C, PBS with 0.005% Tween 20, global fit to a 1:1 binding model
T1 construct: hen egg lysozyme (HEL), bought, used without further purification; also called HEL; source: bought: Wako Pure Chemical (Cat. No. 126-02671)
T1 sequence (P00698 19-147): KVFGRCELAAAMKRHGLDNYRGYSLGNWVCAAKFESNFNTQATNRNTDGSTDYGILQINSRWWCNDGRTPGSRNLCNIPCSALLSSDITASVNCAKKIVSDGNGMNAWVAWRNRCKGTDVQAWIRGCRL

hen egg lysozyme [2] = molecular target: T1, hen egg lysozyme; test: ITC; iTC200, 25 °C, PBS; VHH (10 µM) in the cell titrated with HEL (100 µM); 1:1 binding model; two independent measurements
hen egg lysozyme [3] = molecular target: T1, hen egg lysozyme; test: SPR; HEL immobilised on CM5 chip (200 RU), VHH flowed over, multi-cycle, 30 °C, PBS with 0.005% Tween 20, global fit to a 1:1 binding model
hen egg lysozyme [4] = molecular target: T1, hen egg lysozyme; test: SPR; HEL immobilised on CM5 chip (200 RU), VHH flowed over, multi-cycle, 26 °C, PBS with 0.005% Tween 20, global fit to a 1:1 binding model
hen egg lysozyme [5] = molecular target: T1, hen egg lysozyme; test: SPR; HEL immobilised on CM5 chip (200 RU), VHH flowed over, multi-cycle, 10 °C, PBS with 0.005% Tween 20, global fit to a 1:1 binding model
hen egg lysozyme [6] = molecular target: T1, hen egg lysozyme; test: SPR; HEL immobilised on CM5 chip (200 RU), VHH flowed over, multi-cycle, 14 °C, PBS with 0.005% Tween 20, global fit to a 1:1 binding model
hen egg lysozyme [7] = molecular target: T1, hen egg lysozyme; test: SPR; HEL immobilised on CM5 chip (200 RU), VHH flowed over, multi-cycle, 18 °C, PBS with 0.005% Tween 20, global fit to a 1:1 binding model
hen egg lysozyme [8] = molecular target: T2, hen egg lysozyme (Gallus gallus (hen), UniProt P00698); test: SPR; Biacore T200; HEL immobilised on CM5 chip (200 RU); VHH flowed over; 25 °C; PBS with 0.005% Tween 20; global fit to a 1:1 binding model
T2 construct: hen egg lysozyme (lysozyme C), bought from Wako Pure Chemical; also called HEL; source: bought: Wako Pure Chemical (Cat. No. 126-02671), used without further purification
T2 sequence (P00698 19-147): as above
In short: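 Binding of the His6-tagged single-domain antibody, expressed in E. coli BL21(DE3) and purified by Ni-NTA and size-exclusion chromatography, was measured by surface plasmon resonance on a Biacore T200 against hen egg lysozyme immobilised on a CM5 chip (200 RU). Runs were at 25 °C in PBS with 0.005% Tween 20, with 300 s contact, 600 s dissociation and regeneration in 1.0 M Arg-HCl pH 4.4. Antibody concentrations were adjusted per mutant. Kd, kon and koff came from global fitting to a 1:1 binding model in BiaEvaluation.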

B1: D3-L11 (wild type), VHH specific for hen egg lysozyme (VHH)
VHH: DVQLVESGGGSVQAGGSLRLSCAASGSTDSIEYMTWFRQAPGKAREGVAALYTHTGNTYYTDSVKGRFTISQDKAKNMAYLRMDSVKSEDTAIYTCGATRKYVPVRFALDQSSYDYWGQGTQVTVSS
notes: also called WT; WT antibody; source: E. coli BL21(DE3), purified (Ni-NTA, SEC)
**Q.** What does the source list for B1?
**A.** Kd (hen egg lysozyme [1]): 0.0897 nM; koff (hen egg lysozyme [1]): 0.000492 s⁻¹; kon (hen egg lysozyme [1]): 5.48e+06 M⁻¹ s⁻¹; Kd (hen egg lysozyme [2]): 3.8 nM; stoichiometry N (hen egg lysozyme [2]): 0.88; Kd (hen egg lysozyme [3]): 0.177 nM; koff (hen egg lysozyme [3]): 0.0015 s⁻¹; kon (hen egg lysozyme [3]): 8.48e+06 M⁻¹ s⁻¹; Kd (hen egg lysozyme [4]): 0.127 nM; koff (hen egg lysozyme [4]): 0.000847 s⁻¹; kon (hen egg lysozyme [4]): 6.81e+06 M⁻¹ s⁻¹; Kd (hen egg lysozyme [5]): 0.0267 nM; koff (hen egg lysozyme [5]): 7.52e-05 s⁻¹; kon (hen egg lysozyme [5]): 2.81e+06 M⁻¹ s⁻¹; Kd (hen egg lysozyme [6]): 0.0395 nM; koff (hen egg lysozyme [6]): 0.000139 s⁻¹; kon (hen egg lysozyme [6]): 3.52e+06 M⁻¹ s⁻¹; Kd (hen egg lysozyme [7]): 0.0549 nM; koff (hen egg lysozyme [7]): 0.000274 s⁻¹; kon (hen egg lysozyme [7]): 4.99e+06 M⁻¹ s⁻¹

B2: D3-L11 H54A (VHH)
VHH: B1 VHH with H54A
notes: as the VHH chain of m2 with the stated change; source: E. coli BL21(DE3), purified (Ni-NTA, SEC)
**Q.** Which results are given for B2?
**A.** Kd (hen egg lysozyme [8]): 2.65 nM; koff (hen egg lysozyme [8]): 0.00921 s⁻¹; kon (hen egg lysozyme [8]): 3.48e+06 M⁻¹ s⁻¹

B3: D3-L11 E32A (VHH)
VHH: B1 VHH with E32A
notes: as for B2
**Q.** What does the source list for B3?
**A.** Kd (hen egg lysozyme [8]): 1.87 nM; koff (hen egg lysozyme [8]): 0.012 s⁻¹; kon (hen egg lysozyme [8]): 6.43e+06 M⁻¹ s⁻¹

B4: D3-L11 T55A (VHH)
VHH: B1 VHH with T55A
notes: as for B2
**Q.** B4 was tested. Which Kd (hen egg lysozyme [8]) did it give?
**A.** The Kd was 2.99 nM.

**Q.** And the koff (hen egg lysozyme [8])?
**A.** The koff was 0.0113 s⁻¹.

**Q.** What about the kon (hen egg lysozyme [8]) of the same binder?
**A.** The kon was 3.77e+06 M⁻¹ s⁻¹.

B5: D3-L11 D115A (VHH)
VHH: B1 VHH with D115A
notes: as for B2
**Q.** How did the Kd (hen egg lysozyme [8]) turn out when B5 was run?
**A.** The Kd was 0.156 nM.

**Q.** And the koff (hen egg lysozyme [8])?
**A.** The koff was 0.000956 s⁻¹.

**Q.** And the kon (hen egg lysozyme [8])?
**A.** Its kon is 6.11e+06 M⁻¹ s⁻¹.

B6: D3-L11 S113A (VHH)
VHH: B1 VHH with S113A
notes: as for B2
**Q.** Which Kd (hen egg lysozyme [8]) does the source give for B6 here?
**A.** The Kd was 1.61 nM.

**Q.** And the koff (hen egg lysozyme [8])?
**A.** The koff was 0.00831 s⁻¹.

**Q.** What about the kon (hen egg lysozyme [8]) of the same binder?
**A.** Its kon is 5.17e+06 M⁻¹ s⁻¹.
